T1: virion-encoded gp42 expressed on the cell surface of EBV-positive CNE2 cells (Epstein-Barr virus (HHV-4); strain …)
T1 chain: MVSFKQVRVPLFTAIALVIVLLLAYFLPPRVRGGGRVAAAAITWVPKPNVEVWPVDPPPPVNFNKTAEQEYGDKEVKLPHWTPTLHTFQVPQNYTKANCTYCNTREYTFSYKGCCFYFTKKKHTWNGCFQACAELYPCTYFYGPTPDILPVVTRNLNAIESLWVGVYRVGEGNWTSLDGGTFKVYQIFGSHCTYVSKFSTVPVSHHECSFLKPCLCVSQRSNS

B1: 3E8 (anti-gp42 rabbit mAb, constant regions replaced with human IgG1) (antibody, V domains shown)
VH: QPVKESGGRLVTPGTPLTLTCTASGFSLSSYWMSWVRQARGKGLEWIGTATAGGSAWYASWAKGRFTISRTSTTVELRMTSLTTEDTATYFCARDPPGHSGLWGRGTLVTVSS
VL: DLVMTQTPASVEAAVGGTVTIKCQASESIGNALAWYQQKPGQPPKLLIYDTSNLASGVSSRFRGSGSGTQFTLTISDLECADAATYYCQTYYYSGVTTTYQAFGGGTEVDVK
B2: 3E8 Fab (Fab, V domains shown)
VH: B1 VH
VL: B1 VL
B3: 5E3 (anti-gp42 rabbit mAb, constant regions replaced with human IgG1) (antibody, V domains shown)
VH: QPVEESGGRLVTPGTPLTLTCTVSGFSLSTYAMSWVRQAPGKGLEWIGTISASDTTYFANWTKGRFTISKASTTVDLKITSPTTEDTATFFCARFSAYESNRDYFDTFDPWGPGTLVTVSS
VL: DVVMTQTPSPVSAAVGGTVTIKCQASQNIYRDLAWYQQNPGQPPKLLIYGASNLASGVPSRFSGSGSGTEYILTISDLECADAATYYCQCSAYGSGYAAHAFGGGTKVDIK
B4: 5E3 Fab (Fab, V domains shown)
VH: B3 VH
VL: B3 VL
B5: 6H2 (anti-gHgL mAb, constant regions replaced with human IgG1) (antibody, V domains shown)
VH: EVKLLESGGGLVQPGGSLKLSCAASGFDFSRYWMTWVRQAPGQGLEWIGEINPDSSTINYTPSLKDKFIISRDNAKNTLYLQVSKLRSEDTALYYCARSPYYYGSSYDVWGAGTAVTVSS
VL: DIVMSQSPSSLAVSAGEKVTMNCKSSQSLLNSRTRKNYLAWYQQKPGQSPKLLIYWASTRESGVPDRFTGSGSGTDFTLTISSVQAEDLAFYYCKQSYNLPTFGGGTKLEIK
B6: 6H2 Fab (Fab, V domains shown)
VH: B5 VH
VL: B5 VL
B7: 10E4 (anti-gHgL rabbit mAb, constant regions replaced with human IgG1) (antibody, V domains shown)
VH: QQVKESGGRLVTPGTPLTLTCTASGFSLSTYWMSWVRQAPGKGLEYIGVIGGSGSTYYASWAKGRFTISKTSTTVDLKITSPTTEDTATYFCARDSGAGVRFRFWGPGTLVTVSS
VL: DLVMTQTPASVEAGVGGTVTINCQASENIGSRLAWYQQKPGQPPKLLIYRASTLESGVPSRFKGSGSGTEFTLTISDLECADAATYYCQCTYGVSITINYGNDFGGGTEVVVK
B8: 10E4 Fab (Fab, V domains shown)
VH: B7 VH
VL: B7 VL

How the values were obtained:
[1] = target: T1, virion-encoded gp42 expressed on the …; assay: flow cytometry on cells
[2] = target: T2, gHgL-gp42 complex (soluble gHgL with soluble gp42) (Epstein-Barr virus (HHV-4), strain M81, strain); assay: SPR
[3] = target: T3, soluble EBV gp42 (ectodomain, aa 34-223) (Epstein-Barr virus, strain M81, UniProt P03205); assay: SPR
[4] = target: T2, gHgL-gp42 complex (soluble gHgL with …); assay: SEC
[5] = target: T3, soluble EBV gp42 (ectodomain, aa 34-223); assay: cell-based or functional assay
[6] = target: T3, soluble EBV gp42 (ectodomain, aa 34-223); assay: cryo-EM structure
[7] = target: virion-encoded gHgL expressed on the cell surface of EBV-positive CNE2 cells (Epstein-Barr virus (HHV-4), strain in …); assay: flow cytometry on cells

Binder | binding result [2] | binding result [4] | also measured
B1 | binds |  | binding result [1]: binds; Kd [3]: 0.42 nM
B2 |  | binds | 
B3 | binds |  | IC50 of neutralisation of EBV infection of Akata B cells; blocks gp42:HLA-II [5]: 0.2 µg/mL; binding result [1]: binds; Kd [3]: 0.39 nM
B4 |  | binds | binding result [6]: binds
B5 | binds |  | binding result [7]: binds
B6 |  | binds | 
B7 | binds |  | binding result [7]: binds
B8 |  | binds | 

From publication PMC10694767 (Cell Reports Medicine, 2023)
